Laboratory results from publication PMC10170517.

B1: GroEL1 C-terminal tail peptide L3 (H9Q mutant of L2) (Mycobacterium tuberculosis; H9Q) (peptide)
chain: DKPAKAEDQDHHHGHAH
B2: GroEL1 C-terminal tail peptide L4 (H11Q mutant of L2) (Mycobacterium tuberculosis; H11Q) (peptide)
chain: DKPAKAEDHDQHHGHAH
B3: GroEL1 C-terminal tail peptide L5 (H12Q mutant of L2) (Mycobacterium tuberculosis; H12Q) (peptide)
chain: DKPAKAEDHDHQHGHAH
B4: GroEL1 C-terminal tail peptide L6 (H13Q mutant of L2) (Mycobacterium tuberculosis; H13Q) (peptide)
chain: DKPAKAEDHDHHQGHAH
B5: GroEL1 C-terminal tail peptide L7 (H15Q mutant of L2) (Mycobacterium tuberculosis; H15Q) (peptide)
chain: DKPAKAEDHDHHHGQAH
B6: GroEL1 C-terminal tail peptide L8 (H17Q mutant of L2) (Mycobacterium tuberculosis; H17Q) (peptide)
chain: DKPAKAEDHDHHHGHAQ

Tests used:
Assay in all cases: potentiometry
Conditions in all cases: 298 K; 0.1 M NaClO4; metal-free peptide, random coil
[1] = biological target: Glu7 (position 7, …)
[2] = biological target: Glu7 (position 7, …); remark: listed apart in the source
[3] = biological target: Glu7 (position 7, …); remark: listed apart in the source
[4] = biological target: Glu7 (position 7, …); remark: listed apart in the source

Protein | pKa [4] | further results
B1 |  | pKa [1]: 4.74
B2 |  | pKa [2]: 4.71
B3 |  | pKa [3]: 4.36
B4 | 4.96 | 
B5 | 4.45 | 
B6 | 4.44 | 
